Source: patent publication WO2001004269A1

Assays:
von Willebrand factor [1] = target: von Willebrand factor (UniProt P04275); assay: as above, after thrombin digestion (activated factor VIII) in the absence of antibody; set-up: unit not given here
von Willebrand factor [2] = target: von Willebrand factor (UniProt P04275); assay: biotinylated recombinant factor VIII complexed to von Willebrand factor, captured on the anti-von Willebrand factor antibody MoAb4H1D7, no thrombin digestion, avidin-peroxidase detection; set-up: unit not given here

OD450 (OD450 (so in the source)) (von Willebrand factor [1]): 160
OD450 (OD450 (so in the source)) (von Willebrand factor [2]): 460
Substance: human recombinant factor VIII (from UniProt P00451 20-2351)
